According to publication PMC11098500 (PLOS Pathogens, 2024):

Biological target: SARS-CoV-2 RBD (residues 319-529), His-tagged (SARS-CoV-2 (prototypic strain), UniProt P0DTC2 319-529)
Test: SPR
Details: both partners purified

B1: raccoon dog ACE2 ectodomain (residues 1-614), Fc-tagged (Fc fusion)
chain: QSTEDLVNTFLEKFNYEAEELSYQSSLASWNYNTNITDENLQKMNNAGAKWSAFYEEQSKLAKTYPLEEIQDSTVKRQLRALQHSGSSVLSADKNQRLNTILNSMSTIYSTGKACNPSNPQECLLLEPGLDDIMENSKDYNERLWAWEGWRSEVGKQLRPLYEEYVALKNEMARANNYEDYGDYWRGDYEEEWENGYNYSRNQLIDDVEHTFTQIMPLYQHLHAYVRTKLMDTYPSYISPTGCLPAHLLGDMWGRFWTNLYPLTVPFGQKPNIDVTNAMVNQSWDARKIFKEAEKFFVSVGLPNMTQGFWENSMLTEPSDSWKVVCHPTAWDLGRGDFRIKMCTKVTMDDFLTAHHEMGHIQYDMAYAAQPFLLRNGANEGFHEAVGEIMSLSAATPNHLKNIGLLPPSFFEDSETEINFLLKQALTIVGTLPFTYMLEKWRWMVFKGEIPKDQWMKTWWEMKRNIVGVVEPVPHDETYCDPASLFHVANDYSFIRYYTRTIYQFQFQEALCQIAKHEGPLHKCDISNSSEAGQKLLEMLKLGKSKPWTYALEIVVGAKNMDVRPLLNYFEPLFTWLKEQNRNSFVGWNTDWSPYAD
B1 showed a Kd of 399 nM.
